From the supplement of paper PMC5998384

Legend:
HeLa Kyoto [1] = assay: solubility in G1/S (NP-40 vs SDS abundance) (log2 ratio); higher = more soluble; settings: cell cycle stage: G1/S
HeLa Kyoto [2] = assay: melting temperature (median over replicates), in situ; higher = more thermally stable
HeLa Kyoto [3] = assay: solubility change mitosis vs G1/S (difference of NP-40 vs SDS log2 ratios) (log2 ratio difference); higher = more soluble in mitosis
HeLa Kyoto [4] = assay: thermal stability score vs G1/S (z-score of summed log2 fold changes over temperatures); higher = more thermally stable than in G1/S
[5] = cell cycle stage: early G1 (4.5 h after nocodazole release)
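For melting temperature (median over replicates), in situ in this document: HeLa Kyoto cells synchronized by double thymidine or nocodazole block, proteins quantified by TMT10plex mass spectrometry, three independent biological replicates.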
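For solubility change mitosis vs G1/S (difference of NP-40 vs SDS log2 ratios) in this document: synchronized HeLa Kyoto cells (double thymidine block for G1/S, nocodazole release for mitosis), protein amounts in NP-40 versus SDS lysates quantified by mass spectrometry, three biological replicates.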
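For solubility in G1/S (NP-40 vs SDS abundance) in this document: HeLa Kyoto cells arrested at G1/S by double thymidine block, proteins quantified by TMT10plex mass spectrometry in mild NP-40 versus SDS extracts, three biological replicates.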
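For thermal stability score vs G1/S (z-score of summed log2 fold changes over temperatures) in this document: synchronized HeLa Kyoto cells, proteins quantified by TMT10plex mass spectrometry, three biological replicates, mitosis taken 0.5 h after nocodazole release, G1/S directly after double thymidine block.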

ARNT, sequence (chain, as listed by the source): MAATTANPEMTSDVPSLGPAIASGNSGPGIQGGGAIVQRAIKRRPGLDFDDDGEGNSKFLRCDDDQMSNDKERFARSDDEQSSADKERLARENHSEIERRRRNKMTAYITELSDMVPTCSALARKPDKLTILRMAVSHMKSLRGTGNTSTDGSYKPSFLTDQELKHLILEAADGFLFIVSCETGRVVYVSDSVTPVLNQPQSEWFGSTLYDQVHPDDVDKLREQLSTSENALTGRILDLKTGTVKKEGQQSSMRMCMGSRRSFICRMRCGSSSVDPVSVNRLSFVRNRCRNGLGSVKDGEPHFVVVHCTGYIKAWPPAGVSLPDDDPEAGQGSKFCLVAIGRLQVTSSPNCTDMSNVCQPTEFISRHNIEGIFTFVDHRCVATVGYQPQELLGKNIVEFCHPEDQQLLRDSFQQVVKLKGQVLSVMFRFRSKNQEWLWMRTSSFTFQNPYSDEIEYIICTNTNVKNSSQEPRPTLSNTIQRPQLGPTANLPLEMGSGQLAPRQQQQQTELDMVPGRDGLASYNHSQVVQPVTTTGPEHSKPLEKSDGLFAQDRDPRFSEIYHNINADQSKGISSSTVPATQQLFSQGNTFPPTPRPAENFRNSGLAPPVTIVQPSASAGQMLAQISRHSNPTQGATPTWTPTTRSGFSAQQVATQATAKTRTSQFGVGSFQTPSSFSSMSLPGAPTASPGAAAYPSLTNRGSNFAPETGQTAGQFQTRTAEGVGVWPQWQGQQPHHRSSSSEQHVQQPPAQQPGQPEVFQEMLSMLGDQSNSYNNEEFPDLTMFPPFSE

Substance	solubility in G1/S (log2) (HeLa Kyoto [1])	melting temperature (HeLa Kyoto [2]; cell cycle stage: G1/S) [°C]	melting temperature (HeLa Kyoto [2]; cell cycle stage: mitosis) [°C]	solubility change mitosis (log2) (HeLa Kyoto [3])	thermal stability score (HeLa Kyoto [4]; [5])	thermal stability score (HeLa Kyoto [4]; cell cycle stage: mitosis)
MANEVIKCKAAVAWEAGKPLSIEEIEVAPPKAHEVRIKIIATAVCHTDAYTLSGADPEGCFPVILGHEGAGIVESVGEGVTKLKAGDTVIPLYIPQCGECKFCLNPKTNLCQKIRVTQGKGLMPDGTSRFTCKGKTILHYMGTSTFSEYTVVADISVAKIDPLAPLDKVCLLGCGISTGYGAAVNTAKLEPGSVCAVFGLGGVGLAVIMGCKVAGASRIIGVDINKDKFARAKEFGATECINPQDFSKPIQEVLIEMTDGGVDYSFECIGNVKVMRAALEACHKGWGVSVVVGVAASGEEIATRPFQLVTGRTWKGTAFGGWKSVESVPKLVSEYMSKKIKVDEFVTHNLSFDEINKAFELMHSGKSIRTVVKI [ADH5]	0.147	56.8	56.7	-0.171	-4.67	-2.86
MSSASGLRRGHPAGGEENMTETDAFYKREMFDPAEKYKMDHRRRGIALIFNHERFFWHLTLPERRGTCADRDNLTRRFSDLGFEVKCFNDLKAEELLLKIHEVSTVSHADADCFVCVFLSHGEGNHIYAYDAKIEIQTLTGLFKGDKCHSLVGKPKIFIIQACRGNQHDVPVIPLDVVDNQTEKLDTNITEVDAASVYTLPAGADFLMCYSVAEGYYSHRETVNGSWYIQDLCEMLGKYGSSLEFTELLTLVNRKVSQRRVDFCKDPSAIGKKQVPCFASMLTKKLHFFPKSN [CASP6]	-0.374	54.4	56.6	-0.176	-0.607	-1.03
ARNT	0.243	51.9	51.7	-0.182	0.603	0.868
MLDSLLALGGLVLLRDSVEWEGRSLLKALVKKSALCGEQVHILGCEVSEEEFREGFDSDINNRLVYHDFFRDPLNWSKTEEAFPGGPLGALRAMCKRTDPVPVTIALDSLSWLLLRLPCTTLCQVLHAVSHQDSCPGDSSSVGKVSVLGLLHEELHGPGPVGALSSLAQTEVTLGGTMGQASAHILCRRPRQRPTDQTQWFSILPDFSLDLQEGPSVESQPYSDPHIPPVDPTTHLTFNLHLSKKEREARDSLILPFQFSSEKQQALLRPRPGQATSHIFYEPDAYDDLDQEDPDDDLDI [ELP5]	0.313	54.9	53.9	-0.11	-2.95	-4.18
MATRSPGVVISDDEPGYDLDLFCIPNHYAEDLERVFIPHGLIMDRTERLARDVMKEMGGHHIVALCVLKGGYKFFADLLDYIKALNRNSDRSIPMTVDFIRLKSYCNDQSTGDIKVIGGDDLSTLTGKNVLIVEDIIDTGKTMQTLLSLVRQYNPKMVKVASLLVKRTPRSVGYKPDFVGFEIPDKFVVGYALDYNEYFRDLNHVCVISETGKAKYKA [HPRT1]	0.209	58.5	59.7	-0.113	-0.74	-3.12
MTSLYGRHAEKTTDMPKPSAPKVHVQRSVSRDTIAIHFSASGEEEEEEEEEFREYFEEGLDDQSIVTGLEAKEDLYLEPQVGHDPAGPAASPVLADGLSVSQAPAILPVSKNTVKLLESPVPAAQVLSTVPLAVSPGSSSSGPLASSPSVSSLSEQKTSSSSPLSSPSKSPILSSSASTSTLSSAKPFMSLVKSLSTEVEPKESPHPARHRHLMKTLVKSLSTDTSRQESDTVSYKPPDSKLNLHLFKQFTQPRNTGGDSKTAPSSPLTSPSDTRSFFKVPEMEAKIEDTKRRLSEVIYEPFQLLSKIIGEESGSHRPKALSSSASELSNLSSLNGHLESNNNYSIKEEECDSEGDGYGSDSNIPRSDHPKSTGEPTREIELKSSQGSSLKDLGLKTSSLVLEKCSLSALVSKEDEEFCELYTEDFDLETEGESKVDKLSDIPLKPEVLAEDGVVLDSEDEVDSAVQHPELPVKTLGFFIMCVYVYLILPLPHYVSGLFLGIGLGFMTAVCVIWFFTPPSAHKYHKLHKNLRHWNTRSLDIKEPEILKGWMNEIYNYDPETYHATLTHSVFVRLEGGTLRLSKPNKNISRRASYNEPKPEVTYISQKIYDLSDSKIYLVPKTLARKRIWNKKYPICIELGQQDDFMSKAQTDKETSEEKPPAEGSEDPKKPPRPQEGTRSSQRDQILYLFGRTGREKEEWFRRFILASKLKSEIKKSSGVSGGKPGLLPAHSRHNSPSGHLTHSRSSSKGSVEEIMSQPKQKELAGSVRQKMLLDYSVYMGRCVPQESRSPQRSPLQSAESSPTAGKKLPEVPPSEEEEQEAWVNALLGRIFWDFLGEKYWSDLVSKKIQMKLSKIKLPYFMNELTLTELDMGVAVPKILQAFKPYVDHQGLWIDLEMSYNGSFLMTLETKMNLTKLGKEPLVEALKVGEIGKEGCRPRAFCLADSDEESSSAGSSEEDDAPEPSGGDKQLLPGAEGYVGGHRTSKIMRFVDKITKSKYFQKATETEFIKKKIEEVSNTPLLLTVEVQECRGTLAVNIPPPPTDRVWYGFRKPPHVELKARPKLGEREVTLVHVTDWIEKKLEQEFQKVFVMPNMDDVYITIMHSAMDPRSTSCLLKDPPVEAADQP [TEX2]	-0.062	50.1	50.4	-0.118	-0.212	-0.23
MAVEELQSIIKRCQILEEQDFKEEDFGLFQLAGQRCIEEGHTDQLLEIIQNEKNKVIIKNMGWNLVGPVVRCLLCKDKEDSKRKVYFLIFDLLVKLCNPKELLLGLLELIEEPSGKQISQSILLLLQPLQTVIQKLHNKAYSIGLALSTLWNQLSLLPVPYSKEQIQMDDYGLCQCCKALIEFTKPFVEEVIDNKENSLENEKLKDELLKFCFKSLKCPLLTAQFFEQSEEGGNDPFRYFASEIIGFLSAIGHPFPKMIFNHGRKKRTWNYLEFEEEENKQLADSMASLAYLVFVQGIHIDQLPMVLSPLYLLQFNMGHIEVFLQRTEESVISKGLELLENSLLRIEDNSLLYQYLEIKSFLTVPQGLVKVMTLCPIETLRKKSLAMLQLYINKLDSQGKYTLFRCLLNTSNHSGVEAFIIQNIKNQIDMSLKRTRNNKWFTGPQLISLLDLVLFLPEGAETDLLQNSDRIMASLNLLRYLVIKDNENDNQTGLWTELGNIENNFLKPLHIGLNMSKAHYEAEIKNSQEAQKSKDLCSITVSGEEIPNMPPEMQLKVLHSALFTFDLIESVLARVEELIEIKTKSTSEENIGIK [GLMN]	0.0671	52.2	51.3	-0.21	0.45	0.785
MATATIALQVNGQQGGGSEPAAAAAVVAAGDKWKPPQGTDSIKMENGQSTAAKLGLPPLTPEQQEALQKAKKYAMEQSIKSVLVKQTIAHQQQQLTNLQMAAVTMGFGDPLSPLQSMAAQRQRALAIMCRVYVGSIYYELGEDTIRQAFAPFGPIKSIDMSWDSVTMKHKGFAFVEYEVPEAAQLALEQMNSVMLGGRNIKVGRPSNIGQAQPIIDQLAEEARAFNRIYVASVHQDLSDDDIKSVFEAFGKIKSCTLARDPTTGKHKGYGFIEYEKAQSSQDAVSSMNLFDLGGQYLRVGKAVTPPMPLLTPATPGGLPPAAAVAAAAATAKITAQEAVAGAAVLGTLGTPGLVSPALTLAQPLGTLPQAVMAAQAPGVITGVTPARPPIPVTIPSVGVVNPILASPPTLGLLEPKKEKEEEELFPESERPEMLSEQEHMSISGSSARHMVMQKLLRKQESTVMVLRNMVDPKDIDDDLEGEVTEECGKFGAVNRVIIYQEKQGEEEDAEIIVKIFVEFSIASETHKAIQALNGRWFAGRKVVAEVYDQERFDNSDLSA [PUF60]	0.0524	49.1	50.6	0.0253	1.71	5.96
MVGYDPKPDGRNNTKFQVAVAGSVSGLVTRALISPFDVIKIRFQLQHERLSRSDPSAKYHGILQASRQILQEEGPTAFWKGHVPAQILSIGYGAVQFLSFEMLTELVHRGSVYDAREFSVHFVCGGLAACMATLTVHPVDVLRTRFAAQGEPKVYNTLRHAVGTMYRSEGPQVFYKGLAPTLIAIFPYAGLQFSCYSSLKHLYKWAIPAEGKKNENLQNLLCGSGAGVISKTLTYPLDLFKKRLQVGGFEHARAAFGQVRRYKGLMDCAKQVLQKEGALGFFKGLSPSLLKAALSTGFMFFSYEFFCNVFHCMNRTASQR [SLC25A19]	-0.155	56.4	55.6	-0.0971	-0.746	-1.27
MAKGDPKKPKGKMSAYAFFVQTCREEHKKKNPEVPVNFAEFSKKCSERWKTMSGKEKSKFDEMAKADKVRYDREMKDYGPAKGGKKKKDPNAPKRPPSGFFLFCSEFRPKIKSTNPGISIGDVAKKLGEMWNNLNDSEKQPYITKAAKLKEKYEKDVADYKSKGKFDGAKGPAKVARKKVEEEDEEEEEEEEEEEEEEDE [HMGB3]	0.667	57	57.3	0.349	1.34	0.604
MAAAGGARLLRAASAVLGGPAGRWLHHAGSRAGSSGLLRNRGPGGSAEASRSLSVSARARSSSEDKITVHFINRDGETLTTKGKVGDSLLDVVVENNLDIDGFGACEGTLACSTCHLIFEDHIYEKLDAITDEENDMLDLAYGLTDRSRLGCQICLTKSMDNMTVRVPETVADARQSIDVGKTS [FDX1]	0.338	53	53.9	-0.0683	-0.691	-1.73
SAR1A	0.207	52	52.8	-0.239	2.01	1.85
